Several values for one entry are separate records, joined by “and”; a condition that tells them apart may be missing. Equal values may be shown once.

The target in one experiment is HIS-tagged FcγR3A (UniProt P08637). In words: SPR; Biacore T200; His-tagged FcγR2B or FcγR3A captured by an anti-HIS antibody on a CM5 chip; antibody as analyte, single-cycle titration, 25 to 400 nM, 30 min dissociation; HBS-T pH 7.4; KD from fits to the responses at equilibrium.
The next experiment addresses HIS-tagged FcγR2B (UniProt P31994). Described as above.
Another experiment concerns the target HIS-tagged FcγR1A (UniProt P12314). Briefly: SPR; Biacore T200; His-tagged FcγR1A captured by an anti-HIS antibody on a CM5 chip; antibody as analyte, single-cycle kinetics, 2.5 to 40 nM, 30 min dissociation; HBS-T pH 7.4; bivalent binding model.
In experiment [1] the target is HIS-tagged HER2 (Homo sapiens (assumed; trastuzumab target, species not stated)) (UniProt P04626). Briefly: SPR; Biacore T200; His-tagged HER2 (4 nM) captured by an anti-HIS antibody on a CM5 chip; antibody as analyte, single-cycle kinetics, 2-fold dilutions 0.5–8 nM, 20 µL/min for 2 min, 60 min dissociation; HBS-T (10 mM HEPES, 150 mM NaCl, 0.05% Tween 20, pH 7.4); bivalent binding model; duplicate.

Take Herceptin (antibody): the Kd came out at 267 nM with HIS-tagged FcγR3A, 666 nM in the experiment with HIS-tagged FcγR2B and 4.7 nM with HIS-tagged FcγR1A.
HEK Trastuzumab (antibody) yielded a Kd in the experiment with HIS-tagged FcγR3A of 433 nM. Also, the Kd with HIS-tagged FcγR2B was determined as 686 nM. In the experiment with HIS-tagged FcγR1A, this substance returned a Kd of 9.9 nM, a koff of 0.001 s⁻¹ and a kon of 110000 M⁻¹ s⁻¹.
Trastuzumab L177N (antibody): the Kd with HIS-tagged FcγR3A is 535 nM and 551 nM; with HIS-tagged FcγR2B, 1280 nM and 992 nM; in the experiment with HIS-tagged FcγR1A, 5.6 nM. In the experiment with HIS-tagged FcγR1A, the koff is 0.0014 s⁻¹ and 0.0015 s⁻¹. In addition, the kon with HIS-tagged FcγR1A was 250000 M⁻¹ s⁻¹ and 260000 M⁻¹ s⁻¹.
For Trastuzumab Q160N (antibody), the Kd with HIS-tagged FcγR3A was 596 nM and 535 nM; with HIS-tagged FcγR2B, 143 nM; with HIS-tagged FcγR1A, 6.5 nM and 6.7 nM. In the experiment with HIS-tagged FcγR1A, the koff was 0.00076 s⁻¹. Further, the kon with HIS-tagged FcγR1A was 120000 M⁻¹ s⁻¹ and 110000 M⁻¹ s⁻¹.
As to Trastuzumab Q178N (antibody), the Kd in the experiment with HIS-tagged FcγR3A is 239 nM and 217 nM; in the experiment with HIS-tagged FcγR2B it was 485 nM; with HIS-tagged FcγR1A, 2.6 nM and 2.5 nM. Further, the kon in the experiment with HIS-tagged FcγR1A turned out to be 370000 M⁻¹ s⁻¹.
In the experiment with HIS-tagged FcγR2B, Trastuzumab T198N (antibody) returned a Kd of 666 nM. Moreover, in the experiment with HIS-tagged FcγR1A, the Kd came to 3.8 nM; the koff is 0.00088 s⁻¹ and 0.0009 s⁻¹; the kon stood at 240000 M⁻¹ s⁻¹.
As to Trastuzumab L115N (antibody), the Kd with HIS-tagged FcγR3A is 301 nM and 394 nM; with HIS-tagged FcγR2B, 269 nM and 338 nM; in experiment [1] it was 1.13 nM and 1.16 nM; in the experiment with HIS-tagged FcγR1A it was 6.4 nM and 3.7 nM.
Trastuzumab A121N (antibody): the Kd with HIS-tagged FcγR3A is 295 nM and 268 nM. In the experiment with HIS-tagged FcγR2B, the Kd is 3140 nM and 3740 nM. Moreover, in the experiment with HIS-tagged FcγR1A, the Kd amounted to 4.8 nM; the koff was 0.00083 s⁻¹ and 0.00098 s⁻¹; the kon was 170000 M⁻¹ s⁻¹ and 200000 M⁻¹ s⁻¹.
Regarding Trastuzumab L182N (antibody), in the experiment with HIS-tagged FcγR1A, the Kd is 8.2 nM and 8.1 nM; the koff was 0.0015 s⁻¹.

Values taken from publication PMC8620955.
